The record followed here is patent US20220175895A1 (ACADEMIA SINICA, published 2022).

Data set [1] concerns the target Flag-VPS34 previously ubiquitinated in vitro by UBE3C, Q8NEB9.
For a further data set, the target named is T1, endogenous VPS34 (UniProt Q8NEB9 1-887).
T1 construct: also called vacuolar protein sorting 34; PI3 Kinase Class III
The data set is described as follows: co-immunoprecipitation from 293T cells (FIG. 2I).

The target in the next data set is T2, Rubicon (UniProt Q92622 1-972, limits assumed).
T2 sequence (looked up): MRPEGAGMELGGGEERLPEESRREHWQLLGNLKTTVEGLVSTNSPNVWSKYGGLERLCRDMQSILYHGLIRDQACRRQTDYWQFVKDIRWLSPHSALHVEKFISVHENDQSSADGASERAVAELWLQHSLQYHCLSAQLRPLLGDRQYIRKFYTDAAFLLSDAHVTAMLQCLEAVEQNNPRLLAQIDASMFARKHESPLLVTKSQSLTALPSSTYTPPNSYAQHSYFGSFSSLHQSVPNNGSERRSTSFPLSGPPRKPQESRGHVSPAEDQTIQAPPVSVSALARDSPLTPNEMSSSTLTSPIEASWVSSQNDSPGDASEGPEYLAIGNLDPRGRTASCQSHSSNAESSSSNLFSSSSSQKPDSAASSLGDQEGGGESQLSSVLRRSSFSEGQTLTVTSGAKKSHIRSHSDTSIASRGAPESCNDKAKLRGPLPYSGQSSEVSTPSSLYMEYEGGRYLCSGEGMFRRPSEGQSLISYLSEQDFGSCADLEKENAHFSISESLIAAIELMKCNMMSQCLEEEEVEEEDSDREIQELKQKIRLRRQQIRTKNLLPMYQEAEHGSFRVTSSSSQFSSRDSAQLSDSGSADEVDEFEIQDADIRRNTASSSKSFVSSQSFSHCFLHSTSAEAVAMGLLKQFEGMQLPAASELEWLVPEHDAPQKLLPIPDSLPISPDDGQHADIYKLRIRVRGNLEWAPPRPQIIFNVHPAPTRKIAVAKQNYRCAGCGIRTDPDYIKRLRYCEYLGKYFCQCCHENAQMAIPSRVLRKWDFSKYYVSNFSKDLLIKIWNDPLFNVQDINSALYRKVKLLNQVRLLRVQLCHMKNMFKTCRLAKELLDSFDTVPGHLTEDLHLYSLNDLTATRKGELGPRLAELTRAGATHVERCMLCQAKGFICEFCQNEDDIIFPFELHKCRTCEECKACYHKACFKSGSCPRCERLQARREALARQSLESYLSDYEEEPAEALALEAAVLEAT
In words: immunoprecipitation in 293T cells transfected with Flag-TRABID, fed or starved 2 h (FIG. 2R).

T1 sequence (Q8NEB9 whole entry): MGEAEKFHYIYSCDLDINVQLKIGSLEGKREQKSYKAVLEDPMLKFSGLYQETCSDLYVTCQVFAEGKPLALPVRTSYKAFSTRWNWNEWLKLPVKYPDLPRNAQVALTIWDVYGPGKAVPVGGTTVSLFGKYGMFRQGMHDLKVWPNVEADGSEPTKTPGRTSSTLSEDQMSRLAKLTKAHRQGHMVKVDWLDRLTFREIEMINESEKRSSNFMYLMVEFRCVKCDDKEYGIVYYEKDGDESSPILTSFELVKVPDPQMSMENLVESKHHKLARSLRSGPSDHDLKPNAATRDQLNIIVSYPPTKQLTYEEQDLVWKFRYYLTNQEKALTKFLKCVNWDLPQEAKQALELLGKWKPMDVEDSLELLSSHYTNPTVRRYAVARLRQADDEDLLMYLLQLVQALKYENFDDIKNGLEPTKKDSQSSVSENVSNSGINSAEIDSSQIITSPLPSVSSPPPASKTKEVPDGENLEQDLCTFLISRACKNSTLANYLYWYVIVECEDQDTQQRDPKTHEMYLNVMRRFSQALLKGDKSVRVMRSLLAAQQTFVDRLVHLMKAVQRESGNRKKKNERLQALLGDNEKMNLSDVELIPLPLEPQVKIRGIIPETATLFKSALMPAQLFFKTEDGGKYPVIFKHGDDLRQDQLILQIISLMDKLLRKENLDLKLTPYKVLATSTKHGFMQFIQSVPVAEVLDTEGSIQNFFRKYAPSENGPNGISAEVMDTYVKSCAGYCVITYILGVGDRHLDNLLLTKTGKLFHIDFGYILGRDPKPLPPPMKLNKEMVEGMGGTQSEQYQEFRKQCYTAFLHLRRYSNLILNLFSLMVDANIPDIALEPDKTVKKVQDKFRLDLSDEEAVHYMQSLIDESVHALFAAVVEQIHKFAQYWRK
Flag-VPS34, Q8NEB9, sequence (Q8NEB9 whole entry, looked up): as the sequence (Q8NEB9 whole entry) above
Flag-VPS34 previously ubiquitinated in vitro by UBE3C, Q8NEB9, sequence (Q8NEB9 whole entry, looked up): as the sequence (Q8NEB9 whole entry) above

B1: purified TRABID (Boston Biochem; E-560) (protein)
chain: MSERGIKWACEYCTYENWPSAIKCTMCRAQRPSGTIITEDPFKSGSSDVGRDWDPSSTEGGSSPLICPDSSARPRVKSSYSMENANKWSCHMCTYLNWPRAIRCTQCLSQRRTRSPTESPQSSGSGSRPVAFSVDPCEEYNDRNKLNTRTQHWTCSVCTYENWAKAKRCVVCDHPRPNNIEAIELAETEEASSIINEQDRARWRGSCSSGNSQRRSPPATKRDSEVKMDFQRIELAGAVGSKEELEVDFKKLKQIKNRMKKTDWLFLNACVGVVEGDLAAIEAYKSSGGDIARQLTADEVRLLNRPSAFDVGYTLVHLAIRFQRQDMLAILLTEVSQQAAKCIPAMVCPELTEQIRREIAASLHQRKGDFACYFLTDLVTFTLPADIEDLPPTVQEKLFDEVLDRDVQKELEEESPIINWSLELATRLDSRLYALWNRTAGDCLLDSVLQATWGIYDKDSVLRKALHDSLHDCSHWFYTRWKDWESWYSQSFGLHFSLREEQWQEDWAFILSLASQPGASLEQTHIFVLAHILRRPIIVYGVKYYKSFRGETLGYTRFQGVYLPLLWEQSFCWKSPIALGYTRGHFSALVAMENDGYGNRGAGANLNTDDDVTITFLPLVDSERKLLHVHFLSAQELGNEEQQEKLLREWLDCCVTEGGVLVAMQKSSRRRNHPLVTQMVEKWLDRYRQIRPCTSLSDGEEDEDDEDE
Turning to B1, the “in vitro deubiquitination assay, Western blot of total and K48 ubiquitin linkages on VPS34 (FIG. 2K)” value in data set [1] is “purified TRABID was capable of reducing the total and K48 ubiquitin linkages from this VPS34 in vitro”.

B2: endogenous TRABID (enzyme)
chain: B1 chain
As to B2, the binding result with endogenous VPS34 is listed as “binds”.

B3: Flag-TRABID (enzyme)
chain: B1 chain
notes: not shown: Flag tag
On to B3, for which, in the data set with Rubicon, the binding result is “no binding”.

B4: HA-UBE3C (protein)
chain: MFSFEGDFKTRPKVSLGGASRKEEKASLLHRTQEERRKREEERRRLKNAIIIQSFIRGYRDRKQQYSIQRSAFDRCATLSQSGGAFPIANGPNLTLLVRQLLFFYKQNEDSKRLIWLYQNLIKHSSLFVKQLDGSERLTCLFQIKRLMSLCCRLLQNCNDDSLNVALPMRMLEVFSSENTYLPVLQDASYVVSVIEQILHYMIHNGYYRSLYLLINSKLPSSIEYSDLSRVPIAKILLENVLKPLHFTYNSCPEGARQQVFTAFTEEFLAAPFTDQIFHFIIPALADAQTVFPYEPFLNALLLIESRCSRKSGGAPWLFYFVLTVGENYLGALSEEGLLVYLRVLQTFLSQLPVSPASASCHDSASDSEEESEEADKPSSPEDGRLSVSYITEECLKKLDTKQQTNTLLNLVWRDSASEEVFTTMASVCHTLMVQHRMMVPKVRLLYSLAFNARFLRHLWFLISSMSTRMITGSMVPLLQVISRGSPMSFEDSSRIIPLFYLFSSLFSHSLISIHDNEFFGDPIEVVGQRQSSMMPFTLEELIMLSRCLRDACLGIIKLAYPETKPEVREEYITAFQSIGVTTSSEMQQCIQMEQKRWIQLFKVITNLVKMLKSRDTRRNFCPPNHWLSEQEDIKADKVTQLYVPASRHVWRFRRMGRIGPLQSTLDVGLESPPLSVSEERQLAVLTELPFVVPFEERVKIFQRLIYADKQEVQGDGPFLDGINVTIRRNYIYEDAYDKLSPENEPDLKKRIRVHLLNAHGLDEAGIDGGGIFREFLNELLKSGFNPNQGFFKTTNEGLLYPNPAAQMLVGDSFARHYYFLGRMLGKALYENMLVELPFAGFFLSKLLGTSADVDIHHLASLDPEVYKNLLFLKSYEDDVEELGLNFTVVNNDLGEAQVVELKFGGKDIPVTSANRIAYIHLVADYRLNRQIRQHCLAFRQGLANVVSLEWLRMFDQQEIQVLISGAQVPISLEDLKSFTNYSGGYSADHPVIKVFWRVVEGFTDEEKRKLLKFVTSCSRPPLLGFKELYPAFCIHNGGSDLERLPTASTCMNLLKLPEFYDETLLRSKLLYAIECAAGFELS
On to B4, for which the “in vitro ubiquitination assay, Western blot of polyubiquitin chain on VPS34 (FIG. 3I)” value with Flag-VPS34, Q8NEB9 is given as “baculovirally purified UBE3C could assemble polyubiquitin chain on VPS34 purified from 293T cells”.
